The data set relates to Ac transposase (Zea mays). Description: cell_activity. Conditions: in Arabidopsis; GUS recombination stimulated over no-Ac control; Ds excision footprint confirmed by PCR and sequencing; binding not measured directly.

The values below come from patent US6984774.

For Ds element in GU-Ds-US construct, the activity was above 1000 fold.
